Source: a protein production outcome set (Wang et al. 2014)

Test: label from the status in PepcDB records

With “MSLDPAHTPDPAHPHDQEAAHAEDPARAIGSARLLDVDPLLDDPGTRIVVCCGSGGVGKTTTAAALGLRAAERGRKVVVLTIDPARRLAQSMGIDSLDNIPRRVKGIDDSASGELHAMMLDMKRTFDEIVEAHADRERAAAILSNPFYQSLSAGFAGTQEYMAMEKLGQLRARDEWDLIIVDTPPSRSALDFLDAPKRLGSFLDGKLIRLLTAPAKLGGRAGMKFLNVGMSMMTGTLGKLLGGQLLKDVQTFVAAMDTTFGGFRTRADATYKLLQAPGTAFLVVAAPERDALREAAYFVERLAAEDMPLAGLVLNRVHGSGAAQLSAERALAAAENLDLAADPGSTENLEESRIVDQEGGKAGLRNSPDTYGSSESPADLTPADQTPASSEGSPATDGAVEQLTAGLLILHAERMQLLSREQRTRDRFAALHPEVAVAEVAALPGDVHDLTGLRDIGDRLAANRPELPTSPGGALEHHHHHH” as the sequence, how does the protein production read?
The protein production was “not failed”.

For “MSLDSKTAPAFSLPDLHGKTVSNADLQGKVTLINFWFPSCPGCVSEMPKIIKTANDYKNKNFQVLAVAQPIDPIESVRQYVKDYGLPFTVMYDADKAVGQAFGTQVYPTSVLIGKKGEILKTYVGEPDFGKLYQEIDTAWRNSDAEGHHHHHH”, which protein production is on record?
The protein production was “not failed”.

Which protein production does the source give for “MSLDVLTNFAQIQSFTALAIGIMIGLAALGAGLGLAIMAGKFLESAARQPELIPLLQVRMFIAAGLIDAAFIISVAVGLLLAFANPLSSTLLVAVSKALAG” here?
The protein production was “failed”.

With “MSLDVYVNFPADGHVREIAKTVLDGFDLHWYPDYYDAEAQVIKDRYVLGKRTKMIQAISAGVDHIDVNGIPENVVLCSNAGAYSISVAEHAFALLLAHAKNILENNELMKAGIFRQSPTTLLYGKALGILGYGGIGRRVAHLAKAFGMRVIAYTRSSVDQNVDVISESPADLFRQSDFVLIAIPLTDKTRGMVNSRLLANARKNLTIVNVARADVVSKPDMIGFLKERSDVWYLSDVWWNEPEITETNLRNAILSPHVAGGMSGEIMDIAIQLAFENVRNFFEGEGHHHHHH” as the sequence, how does the protein production read?
Its protein production is “not failed”.

Which protein production does the source give for “MSLEARVLTGAALEARLDEVARLRIAVFRDWPYLYEGSMDYERSYLSTYRTSPGAILVGAFDGDRLVGASTGTPMEDHAEDFAAAFARTGLPLDEIFYCAESVLLPDYRGHGMGHRFFDLREAHARALGRRHSAFCSVIRPEDHPLRPAAARSNEPFWRKRGYAPLPGVVAHYGWTDVGEERETQKPLQFWIRDL” here?
The protein production was “not failed”.

For “MSLEGLSINFATVRQGGNFGAIVDACLAHGITAISPWREQVHGVGLAEAARIVEQNGLRLSGHCRGGFFPAIDADGRRRAIEDNKRAVDEAAAMKADCLVLVVGGLPAGSRDLKGARQMVEDGMAKLLPYARAAGVPLAIEPLHPFYAAERACFNTLKQSLDLCDRLGAGTGVAIDVYHVWWDPELEEQVARAGRNGQILAHHICDWLVPTTDPLNDRGMMGDGVIDLKAFRAMIEAAGFHGPQEVEIFSHRWQARPMDEVLATVVERFKTVC”, which protein production is on record?
The protein production was “failed”.

Which protein production does the source give for “MSLEIIKTGLAAFGMSGQVFHAPFISTNPHFELYKIVERSKELSKERYPQASIVRSFKELTEDPEIDLIVVNTPDNTHYEYAGMALEAGKNVVVEKPFTSTTKQGEELIALAKKKGLMLSVYQNRRWDADFLTVRDILAKSLLGRLVEYESTFARYRNFIKPNTWKETGESGGGLTYNLGSHLIDQAIQLFGMPEAVFADLGILREGGKVDDYFIIHLLHPSLAPNVKITLKASYLMREAEPRFALHGTLGSYVKYGVDKQEAALLAGEIPERPNWGEESEQEWGLLHTEINGKEICRKYPGIAGNYGGFYQNIYEHLCLGQPLETHAQDILNVIRIIEAAYQSHRENKIVNLKEGHHHHHH” here?
Its protein production is “not failed”.

With “MSLEKPYIISVYALIRNEKGEFLLLRRSENSRTNAGKWDLPGGKVNPDESLKEGVAREVWEETGITMVPGDIAGQVNFELTEKKVIAIVFDGGYVVADVKLSYEHIEYSWVSLEKILGMETLPAYFRDFFERFDRENKKPSKLFIEGHHHHHH” as the sequence, how does the protein production read?
Its protein production is “not failed”.

Which protein production does the source give for “MSLELGQAMVTVAGIGCRKGAASDAIIAAVRAAERAFGVTVDYLATAPLKADEAGLAEAAKGLSLSLEIVAQERLEAVAAETMTFSQASLDHSGSPSVSEAAALAAAGAGARLVAPRLVVGDVTVAIAMTSDAPHGSRSAIEYGEQEEGHHHHHH” here?
Its protein production is “not failed”.

For “MSLEPLDVDAEGVAAATKARGFRPKHLVTGPSRDDKSFLGHPGGLPWMLQVEMWERFSWYGMRAILVYFITDTLAHGGLGLPINAGQVVMASYGAAVLLMTIPGGIFADRILGPWMSTLCGGLIIMTGHVILAIPQVVTSWIGLICIAIGTGFIKPNLSTVVGGLYDDGDPRRDQGFLYFYMSINIGSLFAPIVTGLLKDHYGYHVGFIAAAIGMALGLIAFFHGRSKLREFAFDIPNPLAPGEGRRMVLRALGIAVVGAVLAIGFKALLGEWTSAIAYALFAFASVTALSYFLTMFRSPKVSDRERGHLWAFVPLWVGQVLFTMIFEQAAGKMPTFAKDNTDGHIVGSWSVEPEQYQTINPAAVLILAGLLGMWFRRREGKFPNTPQKFAISVFIIGITALIMGFGFRSWPGGNRLAPWWFLAVVFVIQTVAELFMNPIGLSTATKLAPKKFASQNMTLWLLASACGQGLASVTIERTKNLGDVVFYYSLGIVTILVAVVLFVIAPWTQAKMKDVDSVAEEGDA”, which protein production is on record?
The protein production was “failed”.

With “MSLESLFQHIIFTEHQAEESRRLMREVRSEITRCREKIKKATEELNEEKIKLESKVQQFFEKSFFLQLLKAHENALEKQYSEITNHRNMLLQTFEAIKKQMIEEEDKFIKEITDFNNDYEITKKRELLMKENVKIEISDLENQANMLKSEMKSMEHDSSQLNELQKQKSELIQELFTLQRKLKVFEDEENESICTTKYLEAEKIKISEKPQNDTECLRLKKELELYKEDDMESVYEALQTEIEFLELTLAQKDLQESK” as the sequence, how does the protein production read?
Its protein production is “failed”.

For “MSLFRSRPNALSQRSVIASSSELASLAGRDILKRGGNIFDAALAVSAMLCVTQNNLCGLGGDLFALIRDENGQIMDLNGSGQASRAVSIDYYESMGLTKIPERGPYAAITVPGIAGSWDEIFRKFATMDIADILEPAIRTASAGFPITQNYSDSIARSAPVIGQYRGWSSIFMPNGSVPVAGEILKQPDLAESFRLMSEEGFRSFYDGSLADIIIAGLEGTGSPLSDRDLRVYRPLIGKPVFTDLDEFRIYETSPNSQGITVIEWIRGMESHGYDSRTMWEAKIEDIFETMEEAYDKRRKITDPSYMNIAQHDSANGKKDGLPKRDHNDIGDTTYFSISDSEGRSVSIIQSNYMGFGSGIVPKGTGFVLQNRGSYFTLQRDHPNALMPGKRTFHTLAACMVEKEHDLYASLGSMGGDIQPQVQMQILMEILKDNTDPQAILDKPRWTEPYTIYEAPGAVYVESEELYRNVSKQISGRKVVLRDVSQEFGTAQITTLIRGDVVVGAADPRGDGIAIPYSEGHHHHHH”, which protein production is on record?
The protein production was “not failed”.

Which protein production does the source give for “MSLIENLWRGICIISASEDAFSAGETIKEKLKSFEIPVVHYRYKDAEIETIWKCYDAIVFVMALEGATRIVCKYAKSKTEDPAIVCIDDKINYVIPLLGGHWGANDIARELSVILNSTPIITTAAEIKGKLSIERIANILIAKIINPENIVKINAALLRDESICIDGIDVNVNFPENIKVNSEECSYIISLRGDKEYKDKIVVWLKPLKISIGIGSKKDVKMEEIRDGIYKVLERLNLKRERIGIIASIREEVKKIADEFNVRFRLVNEEEINNFMNPCLTPPSKTLIEVGLKGVAEISALIAGGRNSKLILRKIAISRNSTIAVATYEGHHHHHH” here?
The protein production was “not failed”.

Which protein production does the source give for “MSLKIDAVDLFYLSMPEVTDAADGSQDALLVRVAAGGHIGWGECEAAPLPSIAAFVCPKSHGVCRPVSDSVLGQRLDGPDDIARIAALVGYNSMDLLQAPHMLSGIEMALWDLLGRRLSAPAWALLGYSASHGKRPYASLLFGDTPQETLERARAARRDGFAAVKFGWGPIGRGTVAADADQIMAAREGLGPDGDLMVDVGQIFGEDVEAAAARLPTLDAAGVLWLEEPFDAGALAAHAALAGRGARVRIAGGEAAHNFHMAQHLMDYGRIGFIQIDCGRIGGLGPAKRVADAAQARGITYVNHTFTSHLALSASLQPFAGLEADRICEYPAAPQQLALDITGDHIRPDAEGLIRAPEAPGLGLQVAASALRRYLVETEIRIGGQLIYRTPQLEGHHHHHH” here?
The protein production was “not failed”.

Which protein production does the source give for “MSLKIGIIGGGSVGLLCAYYLSLYHDVTVVTRRQEQAAAIQSEGIRLYKGGEEFRADCSADTSINSDFDLLVVTVKQHQLQSVFSSLERIGKTNILFLQNGMGHIHDLKDWHVGHSIYVGIVEHGAVRKSDTAVDHTGLGAIKWSAFDDAEPDRLNILFQHNHSDFPIYYETDWYRLLTGKLIVNACINPLTALLQVKNGELLTTPAYLAFMKLVFQEACRILKLENEEKAWERVQAVCGQTKENRSSMLVDVIGGRQTEADAIIGYLLKEASLQGLDAVHLEFLYGSIKALERNTNKVEGHHHHHH” here?
The protein production was “not failed”.
